Measurements as given in US20250163127A1.

What was measured:
CD28 (human) [1] = target: CD28 (human) (UniProt P10747); assay: flow cytometry, transfected cells
CD28 (human) [2] = target: CD28 (human) (UniProt P10747); assay: flow cytometry, Jurkat cells (CD28)
PD-L1 (human) = assay: flow cytometry, CHO cells stably expressing PD-L1
CTLA4 (human) = assay: flow cytometry, CHO cells stably expressing CTLA4
Sequence of CTLA4 (human) (chain, as listed by the source): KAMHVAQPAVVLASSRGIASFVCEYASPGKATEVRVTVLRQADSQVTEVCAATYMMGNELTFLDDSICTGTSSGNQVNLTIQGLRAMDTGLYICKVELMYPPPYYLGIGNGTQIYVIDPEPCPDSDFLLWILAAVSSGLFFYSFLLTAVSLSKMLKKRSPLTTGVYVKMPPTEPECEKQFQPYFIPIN

Sequence of PD-L1 (human) (chain, as listed by the source): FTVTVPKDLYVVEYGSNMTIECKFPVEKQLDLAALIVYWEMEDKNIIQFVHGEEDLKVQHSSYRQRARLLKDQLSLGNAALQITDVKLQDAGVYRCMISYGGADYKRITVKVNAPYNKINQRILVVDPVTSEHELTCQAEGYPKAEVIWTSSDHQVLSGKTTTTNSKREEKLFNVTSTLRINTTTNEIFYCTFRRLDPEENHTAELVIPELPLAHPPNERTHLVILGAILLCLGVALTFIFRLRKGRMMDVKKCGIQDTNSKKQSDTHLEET

Row | Binder | MFI (CD28 (human) [1]) [MFI] | Fold change to WT (CD28 (human) [2]) [fold] | MFI at 33.3 nM (CD28 (human) [2]) [MFI] | Fold change to WT (PD-L1 (human)) [fold] | MFI at 33.3 nM (PD-L1 (human)) [MFI] | Fold change to WT CD80 (CTLA4 (human)) [fold] | MFI at 33.3 nM (CTLA4 (human)) [MFI]
1 | ICOSL ECD-Fc N52Q/N84Q/N119Q/N207Q (Fc fusion) DTQEKEVRAMVGSDVELSCACPEGSRFDLNDVYVYWQTSESKTVVTYHIPQQSSLENVDSRYRNRALMSPAGMLRGDFSLRLFQVTPQDEQKFHCLVLSQSLGFQEVLSVEVTLHVAAQFSVPVVSAPHSPSQDELTFTCTSINGYPRPNVYWINKTDNSLLDQALQNDTVFLNMRGLYDVVSVLRIARTPSVNIGCCIENVLLQQQLTVGSQTGNDIGERDKITENPVSTGEKNAAT | 602 | – | – | – | – | – | –
2 | ICOSL ECD-Fc N52Q/N84Q (Fc fusion) DTQEKEVRAMVGSDVELSCACPEGSRFDLNDVYVYWQTSESKTVVTYHIPQQSSLENVDSRYRNRALMSPAGMLRGDFSLRLFQVTPQDEQKFHCLVLSQSLGFQEVLSVEVTLHVAANFSVPVVSAPHSPSQDELTFTCTSINGYPRPNVYWINKTDNSLLDQALQNDTVFLNMRGLYDVVSVLRIARTPSVNIGCCIENVLLQQNLTVGSQTGNDIGERDKITENPVSTGEKNAAT | 1680 | – | – | – | – | – | –
3 | CD80 variant A26E/Q33R/E35D/M47L/L85Q/K86E IgV-Fc (Fc fusion) VIHVTKEVKEVATLSCGHNVSVEELEQTRIYWRKDKKMVLTMMSGDLNIWPEYKNRTIFDITNNLSIVILALRPSDEGTYECVVQEYEKDAFKREHLAEVT | – | 0.04 | 275 | 9.56 | 76000 | 0.01 | 1280
4 | CD80 variant Q33K/E35D/M47V/K89E/K93R IgV-Fc (Fc fusion) VIHVTKEVKEVATLSCGHNVSVEELAQTRIYWKKDKKMVLTMMSGDVNIWPEYKNRTIFDITNNLSIVILALRPSDEGTYECVVLKYEEDAFRREHLAEVT | – | – | 276 | – | 39100 | – | –
5 | CD80 variant H18Y/Q33L/E35D/M47I IgV-Fc (Fc fusion) VIHVTKEVKEVATLSCGYNVSVEELAQTRIYWLKDKKMVLTMMSGDINIWPEYKNRTIFDITNNLSIVILALRPSDEGTYECVVLKYEKDAFKREHLAEVT | – | 0.04 | 295 | 6.02 | 47800 | 0.03 | 5540
6 | CD80 variant H18Y/E35D/M47L IgV-Fc (Fc fusion) VIHVTKEVKEVATLSCGYNVSVEELAQTRIYWQKDKKMVLTMMSGDLNIWPEYKNRTIFDITNNLSIVILALRPSDEGTYECVVLKYEKDAFKREHLAEVT | – | 0.66 | 5070 | 5.56 | 44200 | 1.59 | 284000
7 | CD80 variant Q33L/E35D/M47I/L85Q IgV-Fc (Fc fusion) VIHVTKEVKEVATLSCGHNVSVEELAQTRIYWLKDKKMVLTMMSGDINIWPEYKNRTIFDITNNLSIVILALRPSDEGTYECVVQKYEKDAFKREHLAEVT | – | 0.04 | 287 | 8.05 | 63900 | 0.11 | 20500
8 | CD80 variant E35D/M47L/L85Q IgV-Fc (Fc fusion) VIHVTKEVKEVATLSCGHNVSVEELAQTRIYWQKDKKMVLTMMSGDLNIWPEYKNRTIFDITNNLSIVILALRPSDEGTYECVVQKYEKDAFKREHLAEVT | – | 0.08 | 646 | 4.18 | 33200 | 1.88 | 336000
9 | CD80 variant Q33L/E35D/T41S/M47V IgV-Fc (Fc fusion) VIHVTKEVKEVATLSCGHNVSVEELAQTRIYWLKDKKMVLSMMSGDVNIWPEYKNRTIFDITNNLSIVILALRPSDEGTYECVVLKYEKDAFKREHLAEVT | – | 0.04 | 287 | 5.52 | 43800 | 0.08 | 14500
10 | CD80 variant A26E/Q33R/E35D/M47L/L85Q IgV-Fc (Fc fusion) VIHVTKEVKEVATLSCGHNVSVEELEQTRIYWRKDKKMVLTMMSGDLNIWPEYKNRTIFDITNNLSIVILALRPSDEGTYECVVQKYEKDAFKREHLAEVT | – | 0.03 | 264 | 10.3 | 81500 | 0.01 | 1280
11 | CD80 variant A26E/Q33L/E35D/M47L/L85Q IgV-Fc (Fc fusion) VIHVTKEVKEVATLSCGHNVSVEELEQTRIYWLKDKKMVLTMMSGDLNIWPEYKNRTIFDITNNLSIVILALRPSDEGTYECVVQKYEKDAFKREHLAEVT | – | 0.04 | 274 | 7.89 | 62700 | 0.01 | 1170
12 | CD80 variant A26E/Q33L/E35D/M47L IgV-Fc (Fc fusion) VIHVTKEVKEVATLSCGHNVSVEELEQTRIYWLKDKKMVLTMMSGDLNIWPEYKNRTIFDITNNLSIVILALRPSDEGTYECVVLKYEKDAFKREHLAEVT | – | 0.04 | 271 | 7.67 | 60900 | 0.01 | 1320
13 | CD80 variant H18Y/A26E/Q33L/E35D/M47L/L85Q IgV-Fc (Fc fusion) VIHVTKEVKEVATLSCGYNVSVEELEQTRIYWLKDKKMVLTMMSGDLNIWPEYKNRTIFDITNNLSIVILALRPSDEGTYECVVQKYEKDAFKREHLAEVT | – | 0.04 | 272 | 9.64 | 76600 | 0.01 | 2090
14 | CD80 variant Q33L/E35D/M47I IgV-Fc (Fc fusion) VIHVTKEVKEVATLSCGHNVSVEELAQTRIYWLKDKKMVLTMMSGDINIWPEYKNRTIFDITNNLSIVILALRPSDEGTYECVVLKYEKDAFKREHLAEVT | – | 0.04 | 282 | 4.7 | 37400 | 0.09 | 15900

More lines, now with the values ahead:

Row | MFI (CD28 (human) [1]) [MFI] | Fold change to WT (CD28 (human) [2]) [fold] | MFI at 33.3 nM (CD28 (human) [2]) [MFI] | Fold change to WT (PD-L1 (human)) [fold] | MFI at 33.3 nM (PD-L1 (human)) [MFI] | Fold change to WT CD80 (CTLA4 (human)) [fold] | MFI at 33.3 nM (CTLA4 (human)) [MFI] | Binder
15 | 1760 | – | – | – | – | – | – | ICOSL ECD-Fc N84Q (Fc fusion) DTQEKEVRAMVGSDVELSCACPEGSRFDLNDVYVYWQTSESKTVVTYHIPQNSSLENVDSRYRNRALMSPAGMLRGDFSLRLFQVTPQDEQKFHCLVLSQSLGFQEVLSVEVTLHVAANFSVPVVSAPHSPSQDELTFTCTSINGYPRPNVYWINKTDNSLLDQALQNDTVFLNMRGLYDVVSVLRIARTPSVNIGCCIENVLLQQNLTVGSQTGNDIGERDKITENPVSTGEKNAAT
16 | 1490 | – | – | – | – | – | – | ICOSL ECD-Fc N155Q/N207Q (Fc fusion) DTQEKEVRAMVGSDVELSCACPEGSRFDLNDVYVYWQTSESKTVVTYHIPQNSSLENVDSRYRNRALMSPAGMLRGDFSLRLFNVTPQDEQKFHCLVLSQSLGFQEVLSVEVTLHVAANFSVPVVSAPHSPSQDELTFTCTSINGYPRPNVYWIQKTDNSLLDQALQNDTVFLNMRGLYDVVSVLRIARTPSVNIGCCIENVLLQQQLTVGSQTGNDIGERDKITENPVSTGEKNAAT
17 | 1410 | – | – | – | – | – | – | ICOSL ECD-Fc N168Q (Fc fusion) DTQEKEVRAMVGSDVELSCACPEGSRFDLNDVYVYWQTSESKTVVTYHIPQNSSLENVDSRYRNRALMSPAGMLRGDFSLRLFNVTPQDEQKFHCLVLSQSLGFQEVLSVEVTLHVAANFSVPVVSAPHSPSQDELTFTCTSINGYPRPNVYWINKTDNSLLDQALQQDTVFLNMRGLYDVVSVLRIARTPSVNIGCCIENVLLQQNLTVGSQTGNDIGERDKITENPVSTGEKNAAT
18 | 921 | – | – | – | – | – | – | ICOSL ECD-Fc N119Q/N168Q/N207Q (Fc fusion) DTQEKEVRAMVGSDVELSCACPEGSRFDLNDVYVYWQTSESKTVVTYHIPQNSSLENVDSRYRNRALMSPAGMLRGDFSLRLFNVTPQDEQKFHCLVLSQSLGFQEVLSVEVTLHVAAQFSVPVVSAPHSPSQDELTFTCTSINGYPRPNVYWINKTDNSLLDQALQQDTVFLNMRGLYDVVSVLRIARTPSVNIGCCIENVLLQQQLTVGSQTGNDIGERDKITENPVSTGEKNAAT
19 | 552 | – | – | – | – | – | – | ICOSL ECD-Fc N52Q/N119Q/N155Q (Fc fusion) DTQEKEVRAMVGSDVELSCACPEGSRFDLNDVYVYWQTSESKTVVTYHIPQQSSLENVDSRYRNRALMSPAGMLRGDFSLRLFNVTPQDEQKFHCLVLSQSLGFQEVLSVEVTLHVAAQFSVPVVSAPHSPSQDELTFTCTSINGYPRPNVYWIQKTDNSLLDQALQNDTVFLNMRGLYDVVSVLRIARTPSVNIGCCIENVLLQQNLTVGSQTGNDIGERDKITENPVSTGEKNAAT
20 | 1490 | – | – | – | – | – | – | ICOSL ECD-Fc N84Q/N119Q (Fc fusion) DTQEKEVRAMVGSDVELSCACPEGSRFDLNDVYVYWQTSESKTVVTYHIPQNSSLENVDSRYRNRALMSPAGMLRGDFSLRLFQVTPQDEQKFHCLVLSQSLGFQEVLSVEVTLHVAAQFSVPVVSAPHSPSQDELTFTCTSINGYPRPNVYWINKTDNSLLDQALQNDTVFLNMRGLYDVVSVLRIARTPSVNIGCCIENVLLQQNLTVGSQTGNDIGERDKITENPVSTGEKNAAT
21 | 737 | – | – | – | – | – | – | ICOSL ECD-Fc N84Q/N168Q/N207Q (Fc fusion) DTQEKEVRAMVGSDVELSCACPEGSRFDLNDVYVYWQTSESKTVVTYHIPQNSSLENVDSRYRNRALMSPAGMLRGDFSLRLFQVTPQDEQKFHCLVLSQSLGFQEVLSVEVTLHVAANFSVPVVSAPHSPSQDELTFTCTSINGYPRPNVYWINKTDNSLLDQALQQDTVFLNMRGLYDVVSVLRIARTPSVNIGCCIENVLLQQQLTVGSQTGNDIGERDKITENPVSTGEKNAAT
22 | 1860 | – | – | – | – | – | – | ICOSL ECD-Fc N119Q/N207Q (Fc fusion) DTQEKEVRAMVGSDVELSCACPEGSRFDLNDVYVYWQTSESKTVVTYHIPQNSSLENVDSRYRNRALMSPAGMLRGDFSLRLFNVTPQDEQKFHCLVLSQSLGFQEVLSVEVTLHVAAQFSVPVVSAPHSPSQDELTFTCTSINGYPRPNVYWINKTDNSLLDQALQNDTVFLNMRGLYDVVSVLRIARTPSVNIGCCIENVLLQQQLTVGSQTGNDIGERDKITENPVSTGEKNAAT
23 | 2530 | – | – | – | – | – | – | ICOSL ECD-Fc N119Q/N168Q (Fc fusion) DTQEKEVRAMVGSDVELSCACPEGSRFDLNDVYVYWQTSESKTVVTYHIPQNSSLENVDSRYRNRALMSPAGMLRGDFSLRLFNVTPQDEQKFHCLVLSQSLGFQEVLSVEVTLHVAAQFSVPVVSAPHSPSQDELTFTCTSINGYPRPNVYWINKTDNSLLDQALQQDTVFLNMRGLYDVVSVLRIARTPSVNIGCCIENVLLQQNLTVGSQTGNDIGERDKITENPVSTGEKNAAT
